What all share (type): biochemical
One assay concerns the target Eph4A tyrosine kinase (Homo sapiens, UniProt P54764). Kind of assay: Stability of TR-FRET signal at 665 nm in kinase assay. The note with it: for Average Signal at 665 nm: Eph4A 2 nM, 50 nM labeled peptide or 200 nM labeled co-polymer, 50 micromolar ATP. The method, then: (§1) TR-FRET kinase assays are performed under standardized conditions: various individual kinases are incubated with 50 nM of kinase substrate BRB1 labeled with the TR-FRET acceptor dye ULight (PerkinElmer) and 200 micromolar ATP in 10 μL of kinase assay buffer (50 mM HEPES pH7.5, 10 mM MgCl2, 3 mM MnCl2, 1 mM EGTA, 2 mM DTT and 0.01% Tween-20) for 2 hours at room temperature. Reactions are stopped with EDTA, and anti-phospho-tyrosine antibodies (clone PT66) labeled with the TR-FRET europium chelate donor dye are added to a final concentration of 2 nM in a final volume of 20 μL. The TR-FRET signal emitted at 665 nm is read one hour after the addition of antibodies using a TR-FRET plate reader such as the Envision® Multilabel Plate reader (PerkinElmer). The emitted signal at 665 nm is proportional to the extent of peptide phosphorylation, Control reactions indicative of background are performed excluding ATP from the reaction.
An assay comparing the stability of the random co-polymers poly-EAY, poly-EY and peptide BRB1 (SEQ ID No.3) is performed in 384-well format. Assay conditions are similar to those used in Example 1. The Eph4A tyrosine kinase is assayed at 2 nM with 50 nM of labeled peptide of SEQ ID No. 3, 200 nM labeled poly-EY or 200 nM poly-EAY and 50 micromolar ATP in 10 μL of kinase assay buffer. The reaction mixture is incubated for one hour at room temperature. Reactions are stopped with EDTA, and anti-phospho-tyrosine antibodies (clone PT66) labeled with the TR-FRET europium chelate donor dye are added to a concentration of 2 nM in a final volume of 20 μL. The TR-FRET signal emitted at 665 nm is read one, two, four, 18 and 24 hours after the addition of antibodies using a TR-FRET plate reader.

For the next assay, the target named is ROR2 (Homo sapiens, UniProt Q01974). Kind of assay: TR-FRET kinase assay, ROR2. The conditions noted are these: Kinase Concentration 20 nM; 50 nM ULight-labeled substrate, 200 micromolar ATP, 2 hours. The method, then: as §1
(§2) Assay conditions are identical to those used described for FIG. 1.

The target in the next assay is FLT3 (Homo sapiens, UniProt P36888). Kind of assay: TR-FRET kinase assay, FLT3. The conditions noted are these: Kinase Concentration 0.1 nM; 50 nM ULight-labeled substrate, 200 micromolar ATP, 2 hours. The method, then: as §1, §2
The target of a further assay is RON (Homo sapiens, UniProt Q04912). In words: TR-FRET kinase assay, RON. The note with it: Kinase Concentration 0.25 nM; 50 nM ULight-labeled substrate, 200 micromolar ATP, 2 hours. How it is done:
as §1, §2
On the technique in general: In TR-FRET formats the signal depends on donor and acceptor labels being close together.

The target of the next assay is T1, EphA8 (Homo sapiens, UniProt P29322).
T1 sequence (P29322 28-1005): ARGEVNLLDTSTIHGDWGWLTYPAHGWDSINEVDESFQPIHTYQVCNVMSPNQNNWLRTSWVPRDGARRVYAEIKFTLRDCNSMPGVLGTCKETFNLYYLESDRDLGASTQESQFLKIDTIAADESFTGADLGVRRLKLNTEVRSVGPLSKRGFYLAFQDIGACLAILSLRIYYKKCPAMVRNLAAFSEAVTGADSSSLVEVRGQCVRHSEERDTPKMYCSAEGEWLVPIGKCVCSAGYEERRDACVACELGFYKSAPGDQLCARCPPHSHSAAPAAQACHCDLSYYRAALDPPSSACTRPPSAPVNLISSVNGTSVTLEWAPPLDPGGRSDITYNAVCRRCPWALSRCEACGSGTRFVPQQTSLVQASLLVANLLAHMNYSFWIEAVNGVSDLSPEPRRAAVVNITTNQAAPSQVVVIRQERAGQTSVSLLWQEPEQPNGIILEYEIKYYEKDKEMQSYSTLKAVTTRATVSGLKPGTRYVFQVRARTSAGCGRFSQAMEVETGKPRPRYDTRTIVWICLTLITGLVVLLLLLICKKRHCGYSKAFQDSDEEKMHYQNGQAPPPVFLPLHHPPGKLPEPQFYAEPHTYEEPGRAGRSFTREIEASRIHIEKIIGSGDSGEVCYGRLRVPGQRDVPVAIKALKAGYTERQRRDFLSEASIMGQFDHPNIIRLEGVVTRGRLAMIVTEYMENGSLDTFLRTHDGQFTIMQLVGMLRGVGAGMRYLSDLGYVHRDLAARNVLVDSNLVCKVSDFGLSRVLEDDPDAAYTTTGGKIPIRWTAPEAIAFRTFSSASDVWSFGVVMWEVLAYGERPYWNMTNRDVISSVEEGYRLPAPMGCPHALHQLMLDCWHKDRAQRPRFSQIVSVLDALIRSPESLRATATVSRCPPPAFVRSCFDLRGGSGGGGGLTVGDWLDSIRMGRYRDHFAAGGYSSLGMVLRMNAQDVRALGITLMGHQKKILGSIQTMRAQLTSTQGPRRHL
In words: TR-FRET kinase assay, EphA8. The conditions noted are these: Kinase Concentration 0.25 nM; 50 nM ULight-labeled substrate, 200 micromolar ATP, 2 hours. The method, then: as §1, §2

In the next assay the target is BLK (Homo sapiens, UniProt P51451). In words: TR-FRET kinase assay, BLK. The note with it: Kinase Concentration 0.5 nM; 50 nM ULight-labeled substrate, 200 micromolar ATP, 2 hours. How it is done: as §1, §2
The target in the next assay is EphA7 (Homo sapiens, UniProt Q15375). Kind of assay: TR-FRET kinase assay, EphA7. The conditions noted are these: Kinase Concentration 0.5 nM; 50 nM ULight-labeled substrate, 200 micromolar ATP, 2 hours. How it is done:
as §1, §2

In the next assay the target is DGFR [T790M] (Homo sapiens, UniProt P00533, T790M). In words: TR-FRET kinase assay, DGFR [T790M]. The note with it: Kinase Concentration 0.5 nM; 50 nM ULight-labeled substrate, 200 micromolar ATP, 2 hours. How it is done:
as §1, §2

Another assay concerns the target PDGFRa (Homo sapiens, UniProt P16234). Kind of assay: TR-FRET kinase assay, PDGFRa. The note with it: Kinase Concentration 0.5 nM; 50 nM ULight-labeled substrate, 200 micromolar ATP, 2 hours. How it is done: as §1, §2
A further assay deals with 83 tyrosine kinases. Kind of assay: Panel of 83 TR-FRET tyrosine kinase assays. The note with it: 83 tyrosine kinases tested; conditions of Example 1. How it is done:
as §1, §2
The BRB2 peptide is tested with 83 tyrosine kinases in assay conditions identical to those used for BRB1 in Example 1. Data obtained with BRB2 indicate that the peptide is phosphorylated by 65 kinases out of 83 (78%), with signal to noise ratio of >3.

A further assay deals with EphA2 (Homo sapiens, UniProt P29317). Kind of assay: TR-FRET kinase assay, EphA2. The note with it: Kinase Concentration 0.25 nM; 50 nM ULight-labeled substrate, 200 micromolar ATP, 2 hours. How it is done:
as §1, §2

Eph4A tyrosine kinase, sequence (P54764 20-986): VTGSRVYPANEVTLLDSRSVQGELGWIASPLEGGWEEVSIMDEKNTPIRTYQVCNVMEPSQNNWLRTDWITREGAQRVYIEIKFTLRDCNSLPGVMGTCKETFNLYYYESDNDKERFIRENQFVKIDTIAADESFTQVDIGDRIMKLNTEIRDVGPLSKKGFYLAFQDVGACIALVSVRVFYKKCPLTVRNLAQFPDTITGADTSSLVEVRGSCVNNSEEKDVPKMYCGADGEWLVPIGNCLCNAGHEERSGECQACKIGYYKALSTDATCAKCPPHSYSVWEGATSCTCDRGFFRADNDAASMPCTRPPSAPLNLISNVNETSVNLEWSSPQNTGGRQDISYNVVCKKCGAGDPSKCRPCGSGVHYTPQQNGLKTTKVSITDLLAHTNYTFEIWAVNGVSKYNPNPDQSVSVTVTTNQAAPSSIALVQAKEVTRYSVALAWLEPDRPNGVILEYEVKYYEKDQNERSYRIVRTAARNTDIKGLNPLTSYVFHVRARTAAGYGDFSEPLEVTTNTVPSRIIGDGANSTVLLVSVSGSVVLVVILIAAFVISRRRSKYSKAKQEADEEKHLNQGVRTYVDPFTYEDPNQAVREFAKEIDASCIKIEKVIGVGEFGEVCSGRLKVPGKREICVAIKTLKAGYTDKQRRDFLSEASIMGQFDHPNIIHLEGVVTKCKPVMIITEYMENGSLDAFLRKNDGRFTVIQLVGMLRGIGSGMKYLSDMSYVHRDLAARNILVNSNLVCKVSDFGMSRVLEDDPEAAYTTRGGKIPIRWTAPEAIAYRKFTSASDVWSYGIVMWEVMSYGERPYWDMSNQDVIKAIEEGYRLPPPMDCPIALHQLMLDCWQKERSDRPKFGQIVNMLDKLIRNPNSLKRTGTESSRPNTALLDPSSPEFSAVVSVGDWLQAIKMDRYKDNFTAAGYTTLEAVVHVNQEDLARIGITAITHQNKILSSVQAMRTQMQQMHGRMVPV
BLK, sequence (P51451 whole entry, species assumed): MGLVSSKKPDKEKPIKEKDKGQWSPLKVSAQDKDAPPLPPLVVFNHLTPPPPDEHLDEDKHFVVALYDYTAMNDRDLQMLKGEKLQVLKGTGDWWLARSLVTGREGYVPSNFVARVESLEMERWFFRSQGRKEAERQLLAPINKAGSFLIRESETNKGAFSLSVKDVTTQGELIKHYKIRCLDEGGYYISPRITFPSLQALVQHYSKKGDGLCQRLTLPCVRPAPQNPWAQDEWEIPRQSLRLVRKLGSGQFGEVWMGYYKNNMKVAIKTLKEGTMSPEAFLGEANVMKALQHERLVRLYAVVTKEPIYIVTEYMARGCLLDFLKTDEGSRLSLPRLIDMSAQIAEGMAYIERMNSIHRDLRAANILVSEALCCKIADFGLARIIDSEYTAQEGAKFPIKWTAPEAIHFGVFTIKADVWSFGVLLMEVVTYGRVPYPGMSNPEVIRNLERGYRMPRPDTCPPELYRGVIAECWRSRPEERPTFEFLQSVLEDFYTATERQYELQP
PDGFRa, sequence (P16234 24-1089, species assumed): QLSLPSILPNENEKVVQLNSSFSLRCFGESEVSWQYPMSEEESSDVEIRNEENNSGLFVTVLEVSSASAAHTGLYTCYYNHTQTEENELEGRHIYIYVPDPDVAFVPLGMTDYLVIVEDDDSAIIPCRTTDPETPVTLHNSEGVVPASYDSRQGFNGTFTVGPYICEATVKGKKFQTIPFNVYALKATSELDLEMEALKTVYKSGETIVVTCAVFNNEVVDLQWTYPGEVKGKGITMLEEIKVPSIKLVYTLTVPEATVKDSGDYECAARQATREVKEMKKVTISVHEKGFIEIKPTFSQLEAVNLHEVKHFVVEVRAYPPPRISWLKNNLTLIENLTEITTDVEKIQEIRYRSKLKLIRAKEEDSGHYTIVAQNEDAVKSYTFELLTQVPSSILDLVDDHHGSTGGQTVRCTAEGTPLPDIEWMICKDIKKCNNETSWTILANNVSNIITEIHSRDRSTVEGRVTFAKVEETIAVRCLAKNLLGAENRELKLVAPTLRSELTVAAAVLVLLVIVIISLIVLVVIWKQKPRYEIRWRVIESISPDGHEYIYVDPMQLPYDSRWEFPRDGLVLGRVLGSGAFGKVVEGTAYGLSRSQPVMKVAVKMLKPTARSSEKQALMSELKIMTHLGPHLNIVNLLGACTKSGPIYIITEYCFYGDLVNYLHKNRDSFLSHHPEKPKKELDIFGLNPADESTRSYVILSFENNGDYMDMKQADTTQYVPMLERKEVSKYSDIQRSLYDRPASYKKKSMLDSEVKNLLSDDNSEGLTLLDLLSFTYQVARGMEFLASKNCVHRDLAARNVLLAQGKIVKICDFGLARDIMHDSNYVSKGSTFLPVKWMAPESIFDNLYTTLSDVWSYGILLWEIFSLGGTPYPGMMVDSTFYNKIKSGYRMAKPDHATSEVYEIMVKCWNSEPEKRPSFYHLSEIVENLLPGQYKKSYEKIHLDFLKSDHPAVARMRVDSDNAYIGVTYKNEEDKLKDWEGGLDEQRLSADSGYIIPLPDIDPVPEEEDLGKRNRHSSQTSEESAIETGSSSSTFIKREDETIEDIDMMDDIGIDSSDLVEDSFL
EphA7, sequence (Q15375 28-998, species assumed): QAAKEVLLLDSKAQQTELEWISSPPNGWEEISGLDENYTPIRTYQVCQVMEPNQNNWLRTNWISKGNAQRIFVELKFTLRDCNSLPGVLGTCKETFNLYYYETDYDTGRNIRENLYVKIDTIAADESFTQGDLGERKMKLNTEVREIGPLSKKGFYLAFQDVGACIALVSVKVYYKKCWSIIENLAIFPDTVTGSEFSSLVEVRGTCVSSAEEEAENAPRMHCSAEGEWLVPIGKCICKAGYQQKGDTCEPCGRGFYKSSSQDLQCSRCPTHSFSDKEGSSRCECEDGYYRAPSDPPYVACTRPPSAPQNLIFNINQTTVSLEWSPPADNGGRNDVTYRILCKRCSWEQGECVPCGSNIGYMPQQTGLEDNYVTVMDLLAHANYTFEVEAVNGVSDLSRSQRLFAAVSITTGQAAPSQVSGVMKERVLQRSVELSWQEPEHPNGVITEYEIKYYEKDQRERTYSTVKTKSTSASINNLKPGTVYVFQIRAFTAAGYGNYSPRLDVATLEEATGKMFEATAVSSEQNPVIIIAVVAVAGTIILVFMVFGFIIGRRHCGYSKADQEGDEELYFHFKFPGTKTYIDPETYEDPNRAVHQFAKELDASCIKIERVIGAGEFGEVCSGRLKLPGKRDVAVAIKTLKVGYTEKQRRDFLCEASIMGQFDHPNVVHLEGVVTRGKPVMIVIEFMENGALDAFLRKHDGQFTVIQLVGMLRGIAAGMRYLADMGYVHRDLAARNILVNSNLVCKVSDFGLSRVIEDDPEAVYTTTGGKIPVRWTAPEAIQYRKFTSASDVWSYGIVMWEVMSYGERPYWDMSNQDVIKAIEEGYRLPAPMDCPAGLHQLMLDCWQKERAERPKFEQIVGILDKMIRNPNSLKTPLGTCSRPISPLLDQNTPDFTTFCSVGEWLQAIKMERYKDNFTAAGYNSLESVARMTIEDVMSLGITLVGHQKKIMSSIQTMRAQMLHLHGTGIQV

For “C AYE AYE AYE K EYA EYA EYA K AYA EYE R (CAYEAYEAYEKEYAEYAEYAKAYAEYER; tyrosine kinase substrate peptide) [BRB1]”, the “Average Signal at 665 nm” value with Eph4A tyrosine kinase (Incubation 1 h after addition of antibodies) is 134156; with Eph4A tyrosine kinase (Incubation 18 h after addition of antibodies), 117226; with Eph4A tyrosine kinase (Incubation 24 h after addition of antibodies) it was 115534. Moreover, the “% Decrease of average signal at 665 nm” value with Eph4A tyrosine kinase (Incubation 18 h versus 1 h) was 12.6%; with Eph4A tyrosine kinase (Incubation 24 h versus 1 h) it was 13.9%; with Eph4A tyrosine kinase (Incubation 24 h versus 1 h, listed as SEQ ID No. 3) it was 14%. The “Stability of specific TR-FRET signal at 665 nm over time” value with Eph4A tyrosine kinase (after addition of europium-labeled anti-phospho-tyrosine antibody) is given as “more stable”. The “Signal to Noise ratio with BRB1 Peptide” value is given as 1.0 with ROR2; 25.9 with FLT3; 3.5 with RON; 32.3 in the assay with EphA8; 31.0 with BLK; 17.2 with EphA7. The “Signal to Noise ratio with BRB1 Peptide” value amounted to 3.3 with DGFR [T790M], 8.0 with PDGFRa and 26.9 with EphA2. In addition, the “Number of kinases out of 83 that phosphorylated the peptide with signal to noise ratio of >3” value in the assay with 83 tyrosine kinases stood at 72. In addition, the “Percentage of 83 kinases that phosphorylated the peptide with signal to noise ratio of >3” value in the assay with 83 tyrosine kinases is listed as 87%.

The values are drawn from patent US8242083B2, “Kinase substrates” (PerkinElmer Health Sciences, Inc., priority 2008, dated 2012).
